Protein production data for 20 sequences are collected here from a protein production outcome set (Wang et al. 2014).

A short description of this data set: label from the status in PepcDB records.

Take “MEGAEEAGAEIAVDSKDLQQQSKAFDKLTDRVEDRQLDSSRVQSAMASIAASREADLNAKRLREKELASVKINPADVEFIVNELEIEKNVAERTLREHKGDAVAATRQLLSRYPL”: the protein production result is recorded as “failed”. With “MEGIVSIVFSTYNNREKALKCIESCLKQKYNKLFVIVADDGSNDGSQELFKKIQEKDSRFKFIPLVHKERGIARGKAISLAKKLESEYIYIIDSDMILEDNLIEKCMSFFNKNKNVGALIVPEYAFSEYENFYSKVKVFERNIINNSGEDMGKNSIEAARFWRMDAYDLSGGINPSQISFEETQPTIRYVEKGGVVKRAVFTKVYHDEKFVTLRNLLKKKMYYFSVMDKTIQSEEGGFIKTLKRWYFFRPVLYRGSNLKRYLRHPILTIGMINMYVILTLVGVSQILKRKK” the entry was “failed”. With “MEGNCSQGRFDSQVSSMRDLRPNAINQNQKQHHPNSRQDSGFNNTMDTRHNNVDRGKKSMSEDDELCLLSSDGQNKSKENSPWQRVKWMDKMVKLMITALSYIGEDSGSDKKFAVLQKKGKWRSVSKVMDERGYHVSPQQCEDKFNDLNKRYKKLNEMLGRGTSCEVVENPSLLDKIDYLNEKEKDEVRRIMSSKHLFYEEMCSYHNGNRLHLPHDPAVQRSLHLITLGSRDDHDNDEHGKHQNEDLDDDDDYEEDHDGALSDRPLKRLRQSQSHEDVGHPNKGYDVPCLPRSQADVNRGISLDSRKAAGLQRQQIESKSLELEGRKLQIQAEMMELERQQFKWEVFSKRREQKLAKMRMENERMKLENERMSLELKRIELGAKL” the entry was “failed”; with “MEGSIASRARLPRATQMAVATLDTNPRMRRPPREPAPPPSPLHQLVVTLATGKWLLLAVALLGGILAGLAGFTRPVLFEAATQIIIDAPSTGTANATATAQDSLDSSIDDHLTMLSSQAHLRRVLTALRQPQAADAAGKSGISAVPPTSGSFVGNLLSRVWSKGGPAAESPEAVDAAALKTLRSGMRVGQELRSRVITIGFTDTSPVRAALVANTFAQVYIEDLVQKRRASDQRELESLVASLPQVQRDLVDATDRLETYRLTHGAVDQSAANNAANETAELGRQIFLSKANLSASESRLRHIEDLRKAGAPVSAIAEEIGSPVLTDLVARQSGAAADGDLGTAINREIEQGIARIAAEANVYRAQVAALEDRKRVRDAAVADTASQLSGLRALEPQVTIVTQHYNELLGRQQDLIRRIAAPSPGVAVLSTAWPPSNPITLPRIFLVPPGMIVFGLMAAVFVLVRNMFNQTLRSEAEAEAELGIPCVGLLPKVSGLHARQLRHLVLVQQNSPFSRAATSLLVTAAPTQGKGQPPHMILVTSSILDDGKTELAWSLALAATRLGGRVLFLDLDRKDARLTNEFRGEFGTIKAHNSFGDYVSERCVLQDAITRMPEIGIDLMAAPGPSEDLLTLLSTVDKSQFTEELLSVYDVVIINGPLGLGGPETRLLKRWADAVLFAVRWAKTRRSIARGVLESLRAGGSVTVPIGSVLTQVNLKRYAGSRLDDNADLLLERV”, “failed”; with “MEGSIDHHVRKAIQIGVNPLQAIQMASLNAAECFKLAKKGAIAPGFTADLLFIEDLQSLAITHVFKNGTCVAKNGKLIVPLEHHHHHH”, “failed”.

For “MEGSLSRGVEIMKLRELVARSRSIRRFDEHVAVNDATLRDLVELVCYTPSAANRQLLRFLPVTGADMSDKVFPCLKWAGYLEDWPGPEPGERPAAALVMLCRNEDLPGAACDSGIAAQTIMLGAAEKELGGCIVAAIDRERLMASLGIPDAWTVLLVIALGKPAETVVIDQIKPGDDIRYWRDKHGIHHVPKRQVDELLVTAEQLRERG”, the protein production entry is “not failed”. As for “MEGTVFTPCLEGMKHVKSDQGEMLTKPFLELCKTILPVIDKFGAAMTLVKSDIGGNITRLEKNYLSDPDKFKYLYTFVQVEIESKIAKGSSSCTNGLLWLTRAMDFLVELFRNLVAHQDWSMPQACADSYQKTLKKWHGWLASSTFSMALKLAPDRKKFMDVISGSGNIQADMERFCAEFGPFLHDNHKFLASVGMDDMKAS”, the entry is “not failed”. Take “MEHASKRDTMAPSGTIPGNGGVNAPSAARVDWVDYAKGICIVMVVMMHSVLGVELAAGETGFMHVAVAFAKPFRMPDFFLISGLFLSLVIDRDWRTYLDRKVVHFAYFYVVWVTIQFGFKAPAFAAETSWREVGLLYLESFIEPFGTLWFIYLLPVFFVVTKLTRRVPPLAIWLIAAALETARIATGWTAIDEFCARFVYFYSGYLFAPYVFALSDRARSHPGPALAALATWALINAGLVAYGASEWKVVSLVLGFAGACAIITMGTLLARAQWLNFFRFCGEHSIVIYLAFFLPMAATRTLLLRTGVIPDIGTVSLIVTIAGVLGSLAIWQAALRLGADFLFERPDAFWIAPKKAGVRLQAAE”: the protein production entry is “failed”. With “MEHSSMPLWLSSFEEEIDTYIFISSRDNKLYLGILRTYDQHGNVFLTHCVEKIIVPEKNYFSDVYVGNLIIRGDNIAYFGSVDEEKYCKMFDYTIKNDNDEEHNNMDMIKNKKEYSSSENIILVYKPINHILKFIPENNADSSIFEN” the entry was “failed”. As for “MEIFLWKDNRFHHQLRLLWHMCRGRNGTACLLLMKHFAAVRYLKLCTNHLWEVAGNMMNSNMNRRNVQYRQDRQPMPQPAVQPQCQPSCQTCPGTCNDGSMMTGNNGNPQMMPAGGPGPERRPMPVPDHQTLMNEIYQLGFAIVETVLYLDTHPSDADALNYYNQIKRRYSHVMEMYSREYGPLLNTNVMNDNYWSWVATPMPWEVEGC”, the entry is “failed”. For the sequence “MEIGIIGTGNIGGTLARKLIAAGHQVRVANSKGIHGVQSFADEIGATAVDVYGAVKGADAIILSIPLPALASLPNGFFDDLPETVPLIDTSNYYPGLRDPLIPEIDDGMTESVWVSQQLSHPVIKAFNNILAWSLAELGTPKGSASRLAIAVAGDNATLKQIVMNLVDDTGFDAIDAGSLEESWRQQPSTPAYCCDYDAETMKKGLTAAVRGEAASKRDRLPLEHHHHHH”, the protein production result is recorded as “failed”. Regarding “MEIKQPAELSHVLTMTHRNLLKMWHNPDNVSDVVIQPIIFTLLFGYLFGGAIAGSVQAYLPMLVTGILIQSILNAASGSGQQLREDINAGVFDRFKTLPISPIVPLAGQLVGDVFRLLISGLMALVTAFMMGWRPIVSPLVLIGVLLLAVFVGWSLSWVFALVGLMVKNAALIGSLSMIIILVLTFLSNAFIPTKTLPHLLQTIVRLNPVSLTITAMRTILRTGHWGPDAFGVLLSGFLIIVIFMPLTVLAYRRFG”, the protein production result is on record as “failed”. With “MEILKKTGKFLLGVVIGVAIMMFADRYYVKGKRLIADNLPKEPVEYVNPYMGNISHLLVPTYPTVHLPNSMLRVYPERGDFTGDRLGGLPLIVTSHRGSSAFNLSPYQGDEAGLKPVIQYSYDREKIVPYRYQVYLDEANIEVDYAPSHQSAVYSLTFEKDGPAYLVFNSRNGELKCDGNTVSGFQYVDKKTKVYLYAETDKTPEKSGVLASGTVKYGKSSVEGKDAALTLAFSGQKEIGVRYGISFISTEQARKNLEREINSYDVSAIARIGRNEWNDALGKIQVSGGSENDKTVFYTSLYRCYERPVNLSEDGKYYSAFDGKIHEDGGRSFYTDDWIWDTYRATHPLRILIDKERETDIINSYLLMAQQMGTNWMPTFPEVTGDSRRMNSNHAVATVIDAWRKGVRGFDLEKAYEAARKGIEEKTLIPWSAAPSGWLDEFYKEHGYIPALKPGEKETVADVSPWEKRQPVAVTLGTAYDEWCLSQIAAELGKKEDAEYFLARSYNYRNLFNPETRFFHPKDKDGKFIEGVDYRYSGGLGARDYYDENNGYIYRWDVQHNIGDLVSLIGGNEVFTAALDSMFDTPLGMSKWQFYSFLPDHTGNVGMFSMANEPSLHIPYLYNYAGQPWKTQKRIRVLLDQWFRNDLMGVPGDEDGGGMSAFVVFSMMGFYPVTPGSPTYNIGSPVFSDVKIDLGGGNVFEIVADGASHDNKYVQSATLNGEELSGPWFDHSRITAGGVLSLKMGPKANKKWGIGNPPPSVGPMQK” the entry was “failed”; with “MEILVVAVGILVDRLTKIWALDKLKKVQDIPIIKNFFDLTYVENRGAAWGIFSGKTLVLSAVTLLVLSAIIVYMIKYRPKSKLARISLSLVISGALGNLYDRVFYKYVVDLFSLHYKDIYYYPVFNVADICVVVGTIMIAIFIVLKDDKKDGKV”, “failed”; with “MEIQEMAKRFSPEFKQQAIDYALSNSHEPIATIAQKLGVGYSTLDKWIREANPVGSSKRQLSPEQQRILELEKEVKQLREANDILKKAHVYFLTDHAKKSTR”, “failed”. With “MEISCLLNEIKASIRYENQIVHIEETPARDACYAPLELEVRIKAALSGTGIEALYSHQAEAIEKVREGKDLVLCTSTASGKSLTYMIPVFEAVLKDPEATSLYISPLNALVNDQLKAFLEFEGALNSGAGIARYTGALSADQKRKIRDGKTNIVFTNPEMVHMSFLAWHHLWRRFFSNLRFIVVDESHYYRGVIGSNMANVLRRLLRVAEYYGASPQFICCSATIGNPEDHTETLLGREAVVVENNGSLQGPQKFVFWNPPLYMNGRGCTVRRSSFSEASALFTRAVQAGLQTLAFTRSRQGVERMYRTCMELLRDRELPSAICPYRSGYFDREREEIERKMNSGELRGVISTNALELGIDIGGLDVCILDGYPGTVMSARQQAGRAGRSGNESLVLMVAGTNALDQYYMRNPADFFARSSENAVLNPKNPYILAGHLLCAAKEIPLRESDEKYFGGGYSRVVELLEAEGLLAGSDMKYSTDPFPYKQVSLRGIDNNTYSLLAFEGERSFPIEKDIEETLAFRECHPGAVYIHRGESFYINRIDHEKREIHAIKTHDSYYTKPMIDSSVVVQETYAAKPLLHAPEVEVGLGEVEVTDRIAGYRKIRTHSDETMSAHEIEMPPITLQTVALWLKLPDRLQEMIGDHKLDFAGGIHAVEHAIISMYPLHLLVDRSDVGGVSTPSHPDLGSKSGIFIYDGHRGGVGYAEKGYDLIEEVLEGTLKAIESCPCESGCPGCIQSPKCGNNNEPLDKHAAIMLLHELLGKAPYIPPEKKEKHLSEARARKTIPQERKSSGDALDRVRRQLRRENINQEPQAGKEKKEKTFIATDENGGMIGVVSAPTPEKAAAKTFHKKLAGQQGATKEKPLEIRIRDLGAGSDYHFRAWTELFEAAENGDPESKEKKAVKKLFIRKMS” the entry was “failed”.

“MEISTKTLHFIEEHREDDTRTLALQSKKYPDVDMAAAVTQIAGRQVAARKIPSWYPVSALWYPPHLSMEQCSSEATALYKASLLEGDTFADLTGGFGIDCSFISRNFKQADYVERQSGLCELALHNFPLLGLGHIRIHNRDGISYLQEMLPVDCLFLDPARRDGHGGKTVAISDCEPDVTVLEPLLVDKAKKVMVKLSPMLDLSLALNELKTVRAVHIVAVNNECKELLLILQKESVSSEVSIHCEHIAGNGESRHYTFTLKQEKTSPCLLADEVGTYLYEPNAAILKAGAFRSLTQTYPVAKLHLNSHLYTSVSLVPDFPGRRFRVEAVSGFGKKELKAFLMDMDKANITIRNFPLSVAELRKRLKLKEGGDDYIFATTLSGGQKVLIRGKKC”: the protein production entry was “not failed”.

For “MEITDVRLRRVETDGRMKAISSITIDGEFVIHDIRVIDGNEGLFVAMPSKRTPDGEFRDIAHPINSGTRAKIQEAVLAAYEVADEPAVNEESSADESVVEEN”, the protein production entry was “failed”. On to “MEKCDFYHIIVLSLNFPGYLKMEYGSTKMEERLSRSPGGKLALWAFYTWCGYFVWAMARYIWVMSRIPDAPVSGFESDLGSTAGKWLGALVGFLFMALVGALLGSIAWYTRPRPARSRRYE”, for which the protein production entry is listed as “failed”.

For “MEKCSRETLLFIFITISSVATSTSTWMPMDGNYGASYCLSWRLAVETNNVRAWRIVPLQCLRYVEVYMLAGQYDRDVQLTVDQIKVYLNEIILPGDGMDAWILDVDDTCFSNVFYYRLKRYGCDPYDPTGFRTWAMKGESPAIQPVLELFYKLIETGFKVFLVTGRDEETLRQATLENLHNQGFTGYERLIMRTADNKRQSATTYKTRIRKEMMEEGYRIWGNVGDQWSDLQGEYSGDRTFKIPNPMYFVP”, the protein production entry is given as “failed”.
